Laboratory results from ChEMBL document CHEMBL2074118, “Effects of tacrolimus and cyclosporin A on peptide transporter PEPT1 in Caco-2 cells” (Pharm Res, 2001).

Substrate: CN(CC(=O)O)C(=O)CN
Assay: TP_TRANSPORTER: uptake in Caco-2 cells
Format: functional, cell-based

B1: Solute carrier family 15 member 1 (Homo sapiens), P46059 (protein)
chain: MGMSKSHSFFGYPLSIFFIVVNEFCERFSYYGMRAILILYFTNFISWDDNLSTAIYHTFVALCYLTPILGALIADSWLGKFKTIVSLSIVYTIGQAVTSVSSINDLTDHNHDGTPDSLPVHVVLSLIGLALIALGTGGIKPCVSAFGGDQFEEGQEKQRNRFFSIFYLAINAGSLLSTIITPMLRVQQCGIHSKQACYPLAFGVPAALMAVALIVFVLGSGMYKKFKPQGNIMGKVAKCIGFAIKNRFRHRSKAFPKREHWLDWAKEKYDERLISQIKMVTRVMFLYIPLPMFWALFDQQGSRWTLQATTMSGKIGALEIQPDQMQTVNAILIVIMVPIFDAVLYPLIAKCGFNFTSLKKMAVGMVLASMAFVVAAIVQVEIDKTLPVFPKGNEVQIKVLNIGNNTMNISLPGEMVTLGPMSQTNAFMTFDVNKLTRINISSPGSPVTAVTDDFKQGQRHTLLVWAPNHYQVVKDGLNQKPEKGENGIRFVNTFNELITITMSGKVYANISSYNASTYQFFPSGIKGFTISSTEIPPQCQPNFNTFYLEFGSAYTYIVQRKNDSCPEVKVFEDISANTVNMALQIPQYFLLTCGEVVFSVTGLEFSYSQAPSNMKSVLQAGWLLTVAVGNIIVLIVAGAGQFSKQWAEYILFAALLLVVCVIFAIMARFYTYINPAEIEAQFDEDEKKNRLEKSNPYFMSGANSQKQM
  Km: 830 µM
